Source: paper PMC5548637 (International journal of biological macromolecules, 2017)

B1: TBC1D4 CTR (TBC1D4 1192-1299) with His6-tag (domain or fragment, human, UniProt O60343 1192-1298, looked up)
chain: SCEDSETLEKLERANSQLKRQNMDLLEKLQVAHTKIQALESNLENLLTRETKMKSLIRTLEQEKMAYQKTVEQLRKLLPADALVNCDLLLRDLNCNPNNKAKIGNKP
B2: TBC1D4 RabGAP-CTR1 (TBC1D4 865-1299) with His6-tag (domain or fragment, human, UniProt O60343 865-1298, looked up)
chain: ASRDELQSRKVKLDYEEVGACQKEVLITWDKKLLNCRAKIRCDMEDIHTLLKEGVPKSRRGEIWQFLALQYRLRHRLPNKQQPPDISYKELLKQLTAQQHAILVDLGRTFPTHPYFSVQLGPGQLSLFNLLKAYSLLDKEVGYCQGISFVAGVLLLHMSEEQAFEMLKFLMYDLGFRKQYRPDMMSLQIQMYQLSRLLHDYHRDLYNHLEENEISPSLYAAPWFLTLFASQFSLGFVARVFDIIFLQGTEVIFKVALSLLSSQETLIMECESFENIVEFLKNTLPDMNTSEMEKIITQVFEMDISKQLHAYEVEYHVLQDELQESSYSCEDSETLEKLERANSQLKRQNMDLLEKLQVAHTKIQALESNLENLLTRETKMKSLIRTLEQEKMAYQKTVEQLRKLLPADALVNCDLLLRDLNCNPNNKAKIGNKP

Target: the molecule itself
Test: AUC

Protein | stoichiometry N
B1 | 2
B2 | 2
